To fix the notation:
B1: chr1_185 oligo 2 (dsDNA)
DNA 1: AGAGAGAAAAAAAACTAAAGTTACAGTAGCTTCATGTTGTAGATGGGTATATACCGCT
DNA 2: AGCGGTATATACCCATCTACAACATGAAGCTACTGTAACTTTAGTTTTTTTTCTCTCT
B2: chr1_185 oligo 1 (dsDNA)
DNA 1: TCCCAGGACTATGAGTTTAGAGAGAAAAAAAACTAAAGTTACAGTAGCTTCATGTTG
DNA 2: CAACATGAAGCTACTGTAACTTTAGTTTTTTTTCTCTCTAAACTCATAGTCCTGGGA
B3: chr1_158 oligo 1 (dsDNA)
DNA 1: CGTCTGCTCTCTGTAGGAAGTGCTCCATGGACAGTAGCTTCTGCCTTTCCTT
DNA 2: AAGGAAAGGCAGAAGCTACTGTCCATGGAGCACTTCCTACAGAGAGCAGACG

The target of the series is PRDM9Dom2 (Mus musculus domesticus (B6 allele), UniProt Q96EQ9 513-843). Put plainly: competition; 20x unlabeled vs labeled CAST DNA; EMSA as in Billings et al. 2013 (buffer, pH, temperature not given); unlabeled competitor dsDNA at 20x labeled DNA. Conditions: protein: recombinant; blunt.
Sequence of PRDM9Dom2 (Q96EQ9 513-843): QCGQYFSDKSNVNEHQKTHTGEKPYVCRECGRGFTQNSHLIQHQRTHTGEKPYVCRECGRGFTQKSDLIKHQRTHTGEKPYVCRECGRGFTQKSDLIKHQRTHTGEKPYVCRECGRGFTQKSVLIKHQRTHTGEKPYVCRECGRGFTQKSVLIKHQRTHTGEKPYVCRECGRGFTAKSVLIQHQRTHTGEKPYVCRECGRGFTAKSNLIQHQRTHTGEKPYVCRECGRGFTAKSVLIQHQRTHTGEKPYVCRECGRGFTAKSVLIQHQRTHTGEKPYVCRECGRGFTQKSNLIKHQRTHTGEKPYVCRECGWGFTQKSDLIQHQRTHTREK
With B1, the binding result is recorded as “binds”.
Next, B2: “binds”; B3: “binds”.
